The record followed here is patent US20230235068A1 (published 2023).

The target in experiment [1] is T1, recombinant rat LEPR extracellular domain expressed with a C-terminal myc-myc-hexahistidine tag (rat, UniProt Q62959 22-839).
T1 construct: Monomeric construct; also called rLEPR.MMH; rLEPR-MMH
As to the kind of experiment: SPR, captured mAb, 25 C. As for the experimental part: (§1) Equilibrium dissociation constants (KD values) for antigen binding to purified anti-LEPR monoclonal antibodies of the invention were determined using a real-time surface plasmon resonance biosensor using a Biacore 4000 instrument. All binding studies were performed in running buffer containing 10 mM HEPES, 150 mM NaCl, 3 mM EDTA, and 0.05% v/v Surfactant Tween-20, pH 7.4 (HBS-ET running buffer) at 25° C. and 37° C. The Biacore sensor surface was first derivatized by amine coupling with a monoclonal mouse anti-human Fc antibody (GE, #BR-1008-39) to the capture anti-LEPR monoclonal antibodies. […] The dissociation of monoclonal antibody bound LEPR reagent was monitored for 10 minutes in HBS-ET running buffer. Kinetic association (kₐ) and dissociation (kd) rate constants were determined by fitting the real-time binding sensorgrams to a 1:1 binding model with mass transport limitation using Scrubber 2.0c curve-fitting software. Binding dissociation equilibrium constants (KD) and dissociative half-lives (t½) were calculated from the kinetic rate constants as: […]

The target of experiment [2] is T2, recombinant mouse LEPR extracellular domain expressed with a C-terminal myc-myc-hexahistidine tag (mouse, UniProt P48356 22-839).
T2 construct: Monomeric construct; also called mLEPR.MMH; mLEPR-MMH
The experiment in a line: SPR, captured mAb, 37 C. Here is the method:
as §1
In general terms: Surface plasmon resonance follows binding to a sensor surface in real time, without labels.

T1 sequence (Q62959 other isoform, or with tags, fused parts or gaps): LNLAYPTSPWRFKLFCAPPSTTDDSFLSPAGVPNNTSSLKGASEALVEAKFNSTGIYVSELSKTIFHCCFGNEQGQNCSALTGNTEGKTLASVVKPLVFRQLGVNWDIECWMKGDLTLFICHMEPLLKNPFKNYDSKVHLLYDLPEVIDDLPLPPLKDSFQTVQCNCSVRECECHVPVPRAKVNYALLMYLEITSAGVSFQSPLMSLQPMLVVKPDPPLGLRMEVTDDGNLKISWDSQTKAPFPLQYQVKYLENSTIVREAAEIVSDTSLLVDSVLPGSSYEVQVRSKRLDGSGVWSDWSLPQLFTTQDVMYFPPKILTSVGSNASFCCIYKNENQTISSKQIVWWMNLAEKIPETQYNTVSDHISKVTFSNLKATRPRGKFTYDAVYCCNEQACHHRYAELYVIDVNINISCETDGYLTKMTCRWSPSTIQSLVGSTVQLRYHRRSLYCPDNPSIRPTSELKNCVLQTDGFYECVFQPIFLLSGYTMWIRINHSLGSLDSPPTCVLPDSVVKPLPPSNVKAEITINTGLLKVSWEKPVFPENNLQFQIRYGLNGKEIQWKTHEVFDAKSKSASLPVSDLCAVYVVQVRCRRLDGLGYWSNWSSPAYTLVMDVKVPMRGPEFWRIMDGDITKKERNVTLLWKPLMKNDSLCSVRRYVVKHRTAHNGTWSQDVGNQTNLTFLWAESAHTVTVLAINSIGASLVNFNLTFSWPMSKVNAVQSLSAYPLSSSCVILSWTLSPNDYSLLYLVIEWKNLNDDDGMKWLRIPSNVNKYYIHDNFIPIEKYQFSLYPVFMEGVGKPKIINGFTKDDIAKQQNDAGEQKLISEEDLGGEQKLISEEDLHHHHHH
T2 sequence (P48356 other isoform, or with tags, fused parts or gaps): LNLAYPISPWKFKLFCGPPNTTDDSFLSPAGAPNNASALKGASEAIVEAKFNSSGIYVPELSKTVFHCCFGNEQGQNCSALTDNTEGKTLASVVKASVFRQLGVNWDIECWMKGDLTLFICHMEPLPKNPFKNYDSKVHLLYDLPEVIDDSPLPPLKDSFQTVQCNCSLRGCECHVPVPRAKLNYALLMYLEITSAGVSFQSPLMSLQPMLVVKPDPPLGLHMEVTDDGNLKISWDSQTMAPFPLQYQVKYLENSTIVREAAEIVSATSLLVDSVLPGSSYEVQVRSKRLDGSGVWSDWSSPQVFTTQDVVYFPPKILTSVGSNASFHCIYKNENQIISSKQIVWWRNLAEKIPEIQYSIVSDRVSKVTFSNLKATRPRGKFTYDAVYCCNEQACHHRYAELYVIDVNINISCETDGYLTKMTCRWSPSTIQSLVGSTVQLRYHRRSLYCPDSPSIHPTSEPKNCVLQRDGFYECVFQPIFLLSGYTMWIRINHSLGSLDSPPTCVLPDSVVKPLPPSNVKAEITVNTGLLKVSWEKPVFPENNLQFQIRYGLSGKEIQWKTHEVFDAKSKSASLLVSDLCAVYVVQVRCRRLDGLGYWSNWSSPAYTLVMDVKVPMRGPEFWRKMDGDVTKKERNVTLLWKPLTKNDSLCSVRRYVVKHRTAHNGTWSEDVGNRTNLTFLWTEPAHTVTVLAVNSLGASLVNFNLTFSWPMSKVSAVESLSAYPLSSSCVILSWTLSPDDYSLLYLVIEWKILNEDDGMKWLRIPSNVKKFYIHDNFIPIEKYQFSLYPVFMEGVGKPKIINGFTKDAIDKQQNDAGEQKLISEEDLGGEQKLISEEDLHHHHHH

B1: H4H17322P2 (antibody, human IgG4, V domains shown)
VH: QLQLQESGPGLVKPSETLSLTCTVSGASISSSRFYGGWIRQPPGKGLEWIGDIYYSGNTYYNPSLQSRVTISVDTSKNQFSLKLSSVTAADTAVYYCARHLMITFGGLIVEGFDIWGQGTMVTVSS
VL: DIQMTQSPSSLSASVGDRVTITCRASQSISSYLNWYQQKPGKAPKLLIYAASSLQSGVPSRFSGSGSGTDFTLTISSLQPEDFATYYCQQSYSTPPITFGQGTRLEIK
notes: Fully human variable regions; H4H prefix = human IgG4 Fc
For B1, in experiment [1], the “100 nM rLEPR-MMH Bound (RU)” value was 10 RU.

B2: H4H18462P2 (antibody, human IgG4, V domains shown)
VH: EVQLVESGGDLVQPGRSLRLSCAASGFTFSSFAMSWVRQAPGRGLEWVSSLSDSGDNTYYADSVKGRFTISRDNSKNTLYLQMNNLRAEDTAVYYCAKDLFSGWLFHGFDVWGQGTMVTVSS
VL: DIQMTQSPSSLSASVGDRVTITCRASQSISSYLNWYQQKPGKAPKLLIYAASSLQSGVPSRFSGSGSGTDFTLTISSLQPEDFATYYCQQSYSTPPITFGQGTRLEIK
notes: as for B1
In the case of B2, the “100 nM mLEPR-MMH Bound (RU)” value in experiment [2] worked out at 3 RU.
